Experimental data: patent US20150376269A1 (Regeneron, published 2015)

Columns and labels:
[1] = biological target: T1, serum resistance-associated protein (SRA) from Trypanosoma brucei rhodesiense, recombinant SRA (SEQ ID NO: … (Trypanosoma brucei rhodesiense, UniProt O96637 31-274)); assay: SPR, mAb captured, 25C, pH 7.4
T1 construct: also called SRA protein
T1 sequence: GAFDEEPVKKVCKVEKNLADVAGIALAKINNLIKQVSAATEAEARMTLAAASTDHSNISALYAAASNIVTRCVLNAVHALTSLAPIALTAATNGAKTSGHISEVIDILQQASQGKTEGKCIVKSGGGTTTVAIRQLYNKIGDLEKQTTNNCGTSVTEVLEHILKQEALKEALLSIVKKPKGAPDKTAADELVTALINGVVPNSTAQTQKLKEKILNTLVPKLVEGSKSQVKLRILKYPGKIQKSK
Method: (§1) Equilibrium dissociation constants (KD) values for SRA binding to selected purified anti-SRA monoclonal antibodies were determined using a real-time surface plasmon resonance biosensor assay on a Biacore T200 instrument. […] SRA binding to the captured monoclonal antibodies was monitored for 4 min while the dissociation of mAb bound SRA was monitored for 7 min. Two different assays formats were adopted to characterize kinetics of SRA binding—(i) regular kinetics and (ii) pH4.5 chase. Regular kinetics experiments were performed using pH7.4 buffer as the running buffer and both the association and dissociation was performed in pH7.4. For the chase format, association and dissociation were performed in pH7.4 buffer and pH4.5 buffer respectively.
(§2) Kinetic association (kₐ) and dissociation (kd) rate constants were determined by processing and fitting the data to a 1:1 binding model using Scrubber 2.0c curve fitting software. Only the dissociation rate (kd) was calculated for the pH4.5 chase experiment. Binding dissociation equilibrium constants (KD) and dissociative half-lives (t½) were calculated from the kinetic rate constants as:

[2] = biological target: T1, serum resistance-associated protein …; assay: SPR, 25C, t1/2 pH 7.4 over pH 4.5
Method: as §1, §2

[3] = biological target: T1, serum resistance-associated protein …; assay: SPR, mAb captured, 50 nM SRA, pH 4.5, 25C
[4] = biological target: T1, serum resistance-associated protein …; assay: SPR, mAb captured, 25C, assoc. pH 7.4, dissoc. pH 4.5
Method: as §1, §2

[5] = biological target: T1, serum resistance-associated protein …; assay: SPR, mAb captured, pH 4.5, 25C; competitor biotin-apoL1 peptide
[6] = biological target: T1, serum resistance-associated protein …; assay: SPR, mAb captured, pH 4.5, 25C; competitor biotin-mutant apoL1 peptide
SRA.mmh [7] = biological target: T2, SRA.mmh; assay: Octet, SRA.mmh captured on anti-Penta-His tips, mAb-1 at 50 ug/mL for 5 min, 25 C, pH 7.4
T2 construct: also called SRA.mmh (CHO)
T2 antigen: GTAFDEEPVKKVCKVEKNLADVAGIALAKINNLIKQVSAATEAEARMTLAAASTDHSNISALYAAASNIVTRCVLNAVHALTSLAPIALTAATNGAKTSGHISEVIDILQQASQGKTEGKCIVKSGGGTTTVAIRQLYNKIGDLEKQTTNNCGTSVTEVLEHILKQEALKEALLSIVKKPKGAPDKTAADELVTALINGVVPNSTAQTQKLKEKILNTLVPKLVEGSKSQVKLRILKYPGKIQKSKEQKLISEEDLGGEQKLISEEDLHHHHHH

SRA.mmh [8] = biological target: T2, SRA.mmh; assay: Octet, mAb-2 at 50 ug/mL on captured SRA.mmh after negative control α-PRLR H1H6800P as mAb-1 (row 32 (-))

Binder | Kd [1] [nM] | kon [1] [M⁻¹ s⁻¹] | t ½ [1] [h] | t ½ ratio pH 7.4/pH 4.5 [2] | 50 nM SRA binding (RU) [3] [RU] | t ½ [4] [h] | 50 nM SRA + 5 uM apoL1 peptide binding (RU) [5] [RU] | % Blocking, apoL1 peptide [5] [%] | 50 nM SRA + 5 uM mutant apoL1 peptide binding (RU) [6] [RU] | % Blocking, Mutant apoL1 peptide [6] [%] | 50 ug/mL mAb 1 Bound (nm) (SRA.mmh [7]) | Binding of mAb-2 to SRA Pre-complexed with mAb-1 (SRA.mmh [8])
H1H10027P (antibody, V domains shown, Fully human antibody with human IgG1 Fc (prefix H1H)) VH: EVQLVESGGALVQPGRSLTLSCAASGFTFDDYTMHWVRQTPGKGLEWVSGILWNSDNLVYADSVKGRFTISRDNAKNSLYLQMNSLRVEDTALYYCTKEIDYLTLGGNAFDVWGQGTMVTVSS VL: DIQMTQSPSTLSASVGDRITITCRASQNINYWLAWYQQKPGKAPKLLIYKASSLAGGVPSRFSGSGSGTDFTLTINSLQPDDFATYYCQKYNTYSLNFGGGTKVEIK | ≤ 0.0376 | 1.33e+06 | ≥ 3.85 | ≥ 3 | 95 | 1.4 | 118 | -24 | 92 | 4 | 1.5 | 1.55
H1H10069P (antibody, V domains shown, Fully human antibody with human IgG1 Fc (prefix H1H)) VH: QVQLQESGPGLVKPSETLSLTCSVSGGSFTNYYWSWIRQPPGKGLEWIGSVFYSGTTNYNPSLQSRVTLSIETSKNQFSLRLNSVTAADTAVYYCARDQGAAALDYWGQGTLVTVSS VL: DIQMTQSPSTLSASVGDRLTITCRASQSINNWLAWYQQKPGKAPKLLIYKASNLESGVPSRFSGSGSGTEFTLTISNLQPDDFATYYCQQYNSFFLTFGGGTKVEIK | ≤ 0.0785 | 636000 | ≥ 3.85 | ≥ 2 | 54 | 1.87 | 62 | -13 | 52 | 5 | 1.61 | 1.37
H1H10061P (antibody, V domains shown, Fully human antibody with human IgG1 Fc (prefix H1H)) VH: QVQLVESGGGVVQPGNSLRLSCAASGFTFSAYGMHWVRQAPGKGLEWVAVISYDGSNEFYADSVKGRFTIFRDNSKNMLYLQMNSLRVEDTSIYYCAKDRGLGVYYFFYGMDVWGQGTTVTVSS VL: DIVMTQSPDSLVVSLGERATINCKSSQSLLYSSSNNNYLTWYQQKPGRPPKLLIYWASTRESGVPDRFSGSGSGTDFTLTISSLQAEDVAIYYCQQNYITPLTFGGGTKVEIK | ≤ 0.0308 | 1.62e+06 | ≥ 3.85 | ≥ 2 | 79 | 1.82 | -5 | 100 | 75 | 5 | 1.53 | 1.53
H1H10058P (antibody, V domains shown, Fully human antibody with human IgG1 Fc (prefix H1H)) VH: EVQLVESGGGLVQPGGSLRLSCAASGFTFNDFFMSWVRQAPGKGLEWVANLNQDGSERHYVDSVKGRFTISRDNAKNSLSLQMNSLRVEDTAVYYCAREGGDSWGQGTLVTVSS VL: DIVMTQSPDSLAVSLGERVTINCKSSQSILYSANNKDYLAWFHQKPGQPPKLLIYWASIRESGVPDRISGSGSGTDFTLTISSLQAEDVAVYYCQQYYLFPPTFGQGTKVEIK | ≤ 0.0786 | 636000 | ≥ 3.85 | ≥ 1 | 59 | 4.05 | 57 | 4 | 56 | 5 | 1.44 | 1.27
H1H10059P (antibody, V domains shown, Fully human antibody with human IgG1 Fc (prefix H1H)) VH: QVQLVQSGAEVKKPGASVKVSCKAAGFTFIGYYIHWVRQAPGQGLEWMGWINSNSGDKDSAPKFQDRVTMTRDTSISTAYMELSRLRSDDTAVYFCAREGYNFGHFDYWGQGTLVTVSS VL: DIVMTQTPLSSPVTLGQPASISCRSSQSLVHSDGNTYLSWLQQRPGQPPRLLIYKISNRLSGVPDRFSGSGAGTDFTLKISRVEGEDVGVYYCMQGTQFPRTFGQGTKVEIK | ≤ 0.0318 | 1.57e+06 | ≥ 3.85 | ≥ 6 | 73 | 0.617 | -9 | 100 | 65 | 11 | 1.24 | 1.17
H1H10067P (antibody, V domains shown, Fully human antibody with human IgG1 Fc (prefix H1H)) VH: QVQLQESGPGLVKPSQTLSLTCIVSGGSISSGDYYWNWIRQHPGKGLEWIGDIYHSGDTYYNPSLKSRVTISLDTSKNQFSLKLSSLTAADTAVYYCARDRIVATGGGMDVWGQGTTVTVSS VL: DIQMTQSPSTLSASVGDRVTITCRASQSISSWLAWYQRKPGKAPNLLIYRSSSLESGVPSRFSGSGSGTEFTLTISSLQADDFVIYYCQQYNSYPYTFGQGTKLEIK | ≤ 0.0557 | 897000 | ≥ 3.85 | ≥ 4 | 85 | 0.933 | 98 | -16 | 82 | 4 | 1.52 | 1.41
H2aM10204N (antibody, V domains shown, Chimeric antibody, human variable domains and mouse constant domains (mouse Fc, prefix H2aM); also called H2M10204N) VH: QVHLVQSGAEVKKPGSSVKVSCKASGGTFSNYAISWVRQAPGQGLEWMGGIIPFSGSATYAQNFQGRITITTDESTRTAYMELNGLRSEDTAVYYCARWFSGYGGDFDYWGQGTLVTVSS VL: AIQMTQSPSSLSASVGDRVTITCRASQDIKNDLGWYQQKPGKAPKLLIYAASTLQSGVPSRFSGSGSGTHFTLTLSSLQPEDFATYFCLQDYTFPRTFGQGTKVEIK | ≤ 0.0899 | 556000 | ≥ 3.85 | ≥ 95 | 140 | 0.0333 | 3 | 98 | 128 | 9 | 1.46 | 1.08
H2aM10285N (antibody, V domains shown, Chimeric antibody, human variable domains and mouse constant domains (mouse Fc, prefix H2aM); also called H2M10285N) VH: QVQLVQSGAEVKKPGSSVKVSCKASGGTFTNFAISWVRQAPGLGLEWMGGIIPFVGTATYEQKFQGRVSITADESTRTAYMELSSLRYDDTAVYYCARWFSGSGGDFDYWGQGTLVTVSS VL: AIQMTQSPSSLSASVGDRVTITCRASQGIGNDLGWYQQRRGTAPKLLIYAASSLQSGVPSRFSGSGSGTDFTLTISSLQPEDFATYYCLQDFTFPRTFGQGTKVEIK | 0.138 | 1.03e+06 | 1.37 | 124 | 120 | 0.0117 | 8 | 94 | 111 | 8 | 1.53 | 1.24
